Experimental data taken from patent US20070105771A1 (Y S THERAPEUTICS, published 2007).

Key:
[1] = target: T1, Purified recombinant human CD26 (rhDipeptidyl peptidase IV), R&D Systems CAT #1180-SE (human, UniProt P27487 29-766); assay: SPR (Biacore), IgG1
T1 construct: Bought recombinant protein; also called hu-CD26; soluble human CD26
Procedure: Fabs produced in E. coli as described below were diluted in PBS in a concentration of ˜0.5 μM for the assay. A typical recording included a 3 minute period of injection of the Fab followed by a period of 15 minutes of dissociation, and analysis was performed based on the raw data of the binding curves accordingly.
Analyses thereof were performed using Biacore® as described in Example 1, excepting the binding partners were the rhuMAbs noted above.

[2] = target: T2, human CD26-derived 13 mer peptide 53 (human); assay: peptide microarray
T2 peptide: TQWVTWSPVGHKL
Procedure: (§1) The overnight incubation was followed by three washings with each of PBS buffer pH 7.5 and water. The microarrays were then scanned using ArrayWorx-Microarray Scanner.
(§2) The SPOT recognition software package ArrayPro was used for data analysis. The mean of signal intensities from 3 identical subarrays on each microarray image was used for data evaluation.

[3] = target: T3, human CD26-derived 13 mer peptide 132 (human); assay: peptide microarray
T3 peptide: RISLQWLRRIQNY
Procedure: as §1, §2

[4] = target: T4, human CD26-derived 13 mer peptide 82 (human); assay: peptide microarray
T4 peptide: AYSALWWSPNGTF
Procedure: as §1, §2

[5] = target: T5, human CD26-derived 13 mer peptide 52 (human); assay: peptide microarray
T5 peptide: NNTQWVTWSPVGH
Procedure: as §1, §2

[6] = target: T6, human CD26-derived 13 mer peptide 20 (human); assay: peptide microarray
T6 peptide: SSVFLENSTFDEF
Procedure: as §1, §2

[7] = target: T7, human CD26-derived 13 mer peptide 51 (human); assay: peptide microarray
T7 peptide: IPNNTQWVTWSPV
Procedure: as §1, §2

[8] = target: T8, human CD26-derived 13 mer peptide 120 (human); assay: peptide microarray
T8 peptide: QITAPASMLIGDH
Procedure: as §1, §2

[9] = target: T9, human CD26-derived 13 mer peptide 71 (human); assay: peptide microarray
T9 peptide: TGKEDIIYNGITD
Procedure: as §1, §2

[10] = target: T10, human CD26-derived 13 mer peptide 87 (human); assay: peptide microarray
T10 peptide: GTFLAYAQFNDTE
Procedure: as §1, §2

[11] = target: T11, human CD26-derived 13 mer peptide 68 (human); assay: peptide microarray
T11 peptide: SYRITWTGKEDII
Procedure: as §1, §2

[12] = target: T12, human CD26-derived 13 mer peptide 23 (human); assay: peptide microarray
T12 peptide: NSTFDEFGHSIND
Procedure: as §1, §2

[13] = target: T13, human CD26-derived 13 mer peptide 7 (human); assay: peptide microarray
T13 peptide: LRWISDHEYLYKQ
Procedure: as §1, §2

[14] = target: T14, human CD26-derived 13 mer peptide 3 (human); assay: peptide microarray
T14 peptide: TYRLKLYSLRWIS
Procedure: as §1, §2

[15] = target: T15, human CD26-derived 13 mer peptide 19 (human); assay: peptide microarray
T15 peptide: GNSSVFLENSTFD
Procedure: as §1, §2

[16] = target: T16, human CD26-derived 13 mer peptide 70 (human); assay: peptide microarray
T16 peptide: TWTGKEDIIYNGI
Procedure: as §1, §2

[17] = target: T17, human CD26-derived 13 mer peptide 49 (human); assay: peptide microarray
T17 construct: also called TEERJPNNTQWVT
T17 peptide: TEERIPNNTQWVT
Procedure: as §1, §2

[18] = target: T18, human CD26-derived 13 mer peptide 6 (human); assay: peptide microarray
T18 peptide: YSLRWISDHEYLY
Procedure: as §1, §2

[19] = target: T19, human CD26-derived 13 mer peptide 45 (human); assay: peptide microarray
T19 peptide: DLNKRQLITEERI
Procedure: as §1, §2

[20] = target: T20, human CD26-derived 13 mer peptide 105 (human); assay: peptide microarray
T20 peptide: YPKAGAVNPTVKF
Procedure: as §1, §2

[21] = target: T21, human CD26-derived 13 mer peptide 81 (human); assay: peptide microarray
T21 peptide: FSAYSALWWSPNG
Procedure: as §1, §2

[22] = target: T22, human CD26-derived 13 mer peptide 36 (human); assay: peptide microarray
T22 peptide: YNYVKQWRHSYTA
Procedure: as §1, §2

[23] = target: T23, human CD26-derived 13 mer peptide 64 (human); assay: peptide microarray
T23 peptide: VKIEPNLPSYRIT
Procedure: as §1, §2

[24] = target: T24, human CD26-derived 13 mer peptide 56 (human); assay: peptide microarray
T24 peptide: SPVGHKLAYVWNN
Procedure: as §1, §2

[25] = target: T25, human CD26-derived 13 mer peptide 41 (human); assay: peptide microarray
T25 peptide: YTASYDIYDLNKR
Procedure: as §1, §2

[26] = target: T26, human CD26-derived 13 mer peptide 66 (human); assay: peptide microarray
T26 peptide: PNLPSYRITWTGK
Procedure: as §1, §2

[27] = target: T27, human CD26-derived 13 mer peptide 73 (human); assay: peptide microarray
T27 peptide: DIIYNGITDWVYE
Procedure: as §1, §2

[28] = target: T28, human CD26-derived 13 mer peptide 116 (human); assay: peptide microarray
T28 peptide: SVTNATSIQITAP
Procedure: as §1, §2

[29] = target: T29, human CD26-derived 13 mer peptide 65 (human); assay: peptide microarray
T29 peptide: IEPNLPSYRITWT
Procedure: as §1, §2

[30] = target: T30, human CD26-derived 13 mer peptide 33 (human); assay: peptide microarray
T30 peptide: QFILLEYNYVKQW
Procedure: as §1, §2

[31] = target: T31, human CD26-derived 13 mer peptide 131 (human); assay: peptide microarray
T31 peptide: QERISLQWLRRIQ
Procedure: as §1, §2

[32] = target: T32, human CD26-derived 13 mer peptide 123 (human); assay: peptide microarray
T32 peptide: SMLIGDHYLCDVT
Procedure: as §1, §2

[33] = target: T33, human CD26-derived 13 mer peptide 108 (human); assay: peptide microarray
T33 peptide: VNPTVKFFVVNTD
Procedure: as §1, §2

[34] = target: T34, human CD26-derived 13 mer peptide 76 (human); assay: peptide microarray
T34 peptide: ITDWVYEEEVFSA
Procedure: as §1, §2

[35] = target: T35, human CD26-derived 13 mer peptide 94 (human); assay: peptide microarray
T35 peptide: PLIEYSFYSDESL
Procedure: as §1, §2

[36] = target: T36, human CD26-derived 13 mer peptide 107 (human); assay: peptide microarray
T36 peptide: GAVNPTVKFFVVN
Procedure: as §1, §2

[37] = target: T37, human CD26-derived 13 mer peptide 100 (human); assay: peptide microarray
T37 peptide: LQYPKTVRVPYPK
Procedure: as §1, §2

[38] = target: T1, Purified recombinant human CD26 …; assay: SPR (Biacore)

T1 sequence (P27487 29-766 limits assumed): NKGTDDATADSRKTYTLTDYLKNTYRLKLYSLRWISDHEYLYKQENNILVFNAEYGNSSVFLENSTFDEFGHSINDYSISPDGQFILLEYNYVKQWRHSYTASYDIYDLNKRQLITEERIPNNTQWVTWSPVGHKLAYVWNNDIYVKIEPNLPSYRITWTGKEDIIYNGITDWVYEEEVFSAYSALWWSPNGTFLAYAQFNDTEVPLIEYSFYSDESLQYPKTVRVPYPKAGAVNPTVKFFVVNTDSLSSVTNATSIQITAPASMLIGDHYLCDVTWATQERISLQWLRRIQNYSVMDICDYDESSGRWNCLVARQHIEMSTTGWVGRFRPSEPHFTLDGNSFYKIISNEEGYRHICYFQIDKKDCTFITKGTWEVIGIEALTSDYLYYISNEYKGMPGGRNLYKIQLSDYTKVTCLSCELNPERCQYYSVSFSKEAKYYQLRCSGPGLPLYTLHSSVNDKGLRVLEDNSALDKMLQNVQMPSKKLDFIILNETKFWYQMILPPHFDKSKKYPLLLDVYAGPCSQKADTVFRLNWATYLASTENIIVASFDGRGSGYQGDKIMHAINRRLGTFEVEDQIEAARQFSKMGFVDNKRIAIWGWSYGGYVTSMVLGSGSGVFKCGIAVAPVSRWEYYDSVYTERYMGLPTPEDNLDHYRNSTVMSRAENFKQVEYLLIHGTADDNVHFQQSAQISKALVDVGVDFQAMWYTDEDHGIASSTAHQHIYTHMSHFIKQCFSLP

B1: rhuMAb 411 (antibody, human IgG1, kappa, V domains shown)
VH: EVQLVESGAGVKQPGGTLRLTCTASGFSLTTYGVHWVRQAPGKGLEWVGVIWGDGRTDYDAAFMSRVTISKDTSKSTVYLQMNSLRAEDTAVYYCMRNRHDWFDYWGQGTTVTVSS
VL: DILLTQSPSSLSATPGERATITCRASQGIRNNLNWYQQKPGQAPRLLIYYSSNLQSGVPSRFSGSGSGTDFTLTISRLQPEDVAAYYCQQSIKLPFTFGSGTKVEIKR
notes: also called X411
For B1, the “-fold against rhuMAb 409” value [1] was 3.7, the Kd [1] was 220 pM and the “Mean Signal Value” [2] was 0.00481. The “Mean Signal Value” [3] was 113, the “Mean Signal Value” [4] was 67.8 and the “Mean Signal Value” [5] was 0.12. The “Mean Signal Value” [6] was 0.0577, the “Mean Signal Value” [7] was 0.856 and the “Mean Signal Value” [8] was 0.0337. For the same binder, the “Mean Signal Value” [9] was 0, the “Mean Signal Value” [10] was 0.0288 and the “Mean Signal Value” [11] was 0. For the same binder, the “Mean Signal Value” [12] was 0.00481, the “Mean Signal Value” [13] was 20.6 and the “Mean Signal Value” [14] was 0.726. The “Mean Signal Value” [15] was 0, the “Mean Signal Value” [16] was 1 and the “Mean Signal Value” [17] was 0.962. The “Mean Signal Value” [18] was 97.5, the “Mean Signal Value” [19] was 0 and the “Mean Signal Value” [20] was 0. The “Mean Signal Value” [21] was 35.4, the “Mean Signal Value” [22] was 28.2 and the “Mean Signal Value” [23] was 0.438. For the same binder, the “Mean Signal Value” [24] was 11.7, the “Mean Signal Value” [25] was 0.0673 and the “Mean Signal Value” [26] was 0.111. For the same binder, the “Mean Signal Value” [27] was 33.6, the “Mean Signal Value” [28] was 0.0385 and the “Mean Signal Value” [29] was 40.8. For the same binder, the “Mean Signal Value” [30] was 21.8, the “Mean Signal Value” [31] was 5.25 and the “Mean Signal Value” [32] was 0.438. For the same binder, the “Mean Signal Value” [33] was 1.33, the “Mean Signal Value” [34] was 0.0337 and the “Mean Signal Value” [35] was 0.0433. The “Mean Signal Value” [36] was 10.6, the “Mean Signal Value” [37] was 0.00962 and the Kd [38] was 244 pM. It also gave a koff [38] of 6.63e-05 s⁻¹ and a kon [38] of 272000 M⁻¹ s⁻¹.
